B1: recombinant disulfide HMGB1 protein (natural protein)
chain: MGKGDPKKPRGKMSSYAFFVQTCREEHKKKHPDASVNFSEFSKKCSERWKTMSAKEKGKFEDMAKADKARYEREMKTYIPPKGETKKKFKDPNAPKRPPSAFFLFCSEYRPKIKGEHPGLSIGDVAKKLGEMWNNTAADDKQPYEKKAAKLKEKYEKDIAAYRAKGKPDAAKKGVVKAEKSKKKKEEEEDEEDEEDEEEEEDEEDEDEEEDDDDE
modifications: disulfide bond between cysteines 23 and 45; reduced thiol on cysteine 106
notes: high mobility group box-1 protein; also called high mobility group box-1 protein; source: recombinant, provided by Kevin Tracey (The Feinstein Institute for Medical Research)

target: T1, recombinant human TLR4 protein (ectodomain, Glu24-Lys631) (human, UniProt O00206 24-631); experiment: SPR; Biacore T200; TLR4 immobilised on a CM5 chip by amine coupling; HMGB1 or synthetic PSMs in 10 mM acetate buffer (pH 5.2) run over at gradient concentrations; 25°C, 30 µL/min; apparent KD; details: both partners purified
T1 construct: human toll-like receptor 4, Glu24-Lys631, the ectodomain with no transmembrane domain; followed by a C-terminal Ser and 10-His tag; also called hTLR4; toll-like receptor 4; source: bought: R&D Systems (Catalog Number 1478-TR); not shown: His10 (after a Ser), C-terminal, kept
T1 sequence (O00206 24-631): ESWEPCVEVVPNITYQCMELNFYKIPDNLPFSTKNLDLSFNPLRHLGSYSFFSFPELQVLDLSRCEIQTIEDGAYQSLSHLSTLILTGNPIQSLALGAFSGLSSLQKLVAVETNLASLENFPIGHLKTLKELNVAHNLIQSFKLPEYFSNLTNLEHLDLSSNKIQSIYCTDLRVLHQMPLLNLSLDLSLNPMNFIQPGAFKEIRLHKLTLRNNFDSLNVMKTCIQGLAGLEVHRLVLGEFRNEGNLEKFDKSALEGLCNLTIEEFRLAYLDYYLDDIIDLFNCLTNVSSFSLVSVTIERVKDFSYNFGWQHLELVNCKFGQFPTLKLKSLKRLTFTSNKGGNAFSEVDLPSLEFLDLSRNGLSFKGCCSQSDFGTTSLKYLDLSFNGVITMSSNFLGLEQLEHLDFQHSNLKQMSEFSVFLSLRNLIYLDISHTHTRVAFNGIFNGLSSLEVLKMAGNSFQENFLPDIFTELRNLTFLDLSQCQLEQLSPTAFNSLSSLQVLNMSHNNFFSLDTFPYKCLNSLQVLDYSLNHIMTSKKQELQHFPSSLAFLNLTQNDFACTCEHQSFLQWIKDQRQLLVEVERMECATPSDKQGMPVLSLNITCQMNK

**Q.** With B1 as the molecule, how does the Kd read?
**A.** 9.2 µM

target: recombinant human TLR4 protein (ectodomain, Glu24-Lys631) (human) (UniProt O00206); experiment: as above; details: not given
Sequence (O00206 24-631): as above

**Q.** With “Staphylococcus aureus phenol-soluble modulin α2 (peptide)” as the molecule, how does the Kd read?
**A.** 3.24 µM

**Q.** How did the Kd turn out when “Staphylococcus aureus phenol-soluble modulin α3 (peptide)” was run?
**A.** 3 µM

**Q.** With “Staphylococcus aureus phenol-soluble modulin α1 (peptide)” as the molecule, how does the Kd read?
**A.** 3.81 µM

**Q.** How did the Kd turn out when “Staphylococcus aureus phenol-soluble modulin β1 (peptide)” was run?
**A.** 3.79 µM

**Q.** How did the Kd turn out when “Staphylococcus aureus phenol-soluble modulin β2 (peptide)” was run?
**A.** 7.78 µM

— article PMC5996891, “Staphylococcus aureus Phenol-Soluble Modulins α1–α3 Act as Novel Toll-Like Receptor (TLR) 4 Antagonists to Inhibit HMGB1/TLR4/NF-κB Signaling Pathway” (Frontiers in Immunology, 2018)
